# Laboratory results reported in the DeepSol protein solubility set.
# Assay: soluble on expression in E. coli; label from the status in PepcDB or PDB records
row,Sequence,soluble on expression in E. coli
1,MSLIEPDHPQLSIGQQCKLLSISRSSFYYTPKGETDQNLSLMRQIDEQFLETPFFGVRQMTWHLRNEHHLVNEKRIRRLMRLMGLMPIYQKPNNTSRPGRGHKTYPYLLRGLRVDRPNQVWCSDITYLPMRRGFLYLVAIMDWHTRKVLAWRISNTLEADFCVEALNEAIHKFGPPEIMNTDQGSQFTSFAWTDRLRRSGVRISMDGKGRFLDNIFIERLWRTLKYECVYLHAWETGSEAKAGIRKWMTFYNSASLRPSFYVVEGNRFCEGHHHHHH,not soluble
2,MNGKRPAEPGPARVGKKGKKEVMAEFSDAVTEETLKKQVAEAWSRRTPFSHEVIVMDMDPFLHCVIPNFIQSQDFLEGLQKELMNLDFHEKYNDLYKFQQSDDLKKRREPHISTLRKILFEDFRSWLSDISKIDLESTIDMSCAKYEFTDALLCHDDELEGRRIAFILYLVPPWDRSMGGTLDLYSIDEHFQPKQIVKSLIPSWNKLVFFEVSPVSFHQVSEVLSEEKSRLSISGWFHGPSLTRPPNYFEPPIPRSPHIPQDHEILYDWINPTYLDMDYQVQIQEEFEESSEILLKEFLKPEKFTKVCEALEHGHVEWSSRGPPNKRFYEKAEESKLPEILKECMKLFRSEALFLLLSNFTGLKLHFLAPSEEDEMNDKKEAETTDITEEGTSHSPPEPENNQMAISNNSQQSNEQTDPEPEENETKKESSVPMCQGELRHWKTGHYTLIHDHSKAEFALDLILYCGCEGWEPEYGGFTSYIAKGEDEELLTVNPESNSLALVYRDRETLKFVKHINHRSLEQKKTFPNRTGFWDFSFIYYE,not soluble
3,MELSSEHKALFSLLRAGLWEREPDDLSPFPLTDAQWWNVYRMAVRQTVTGIVCRGLHHLPEALLPGDALMIRWVAETDRIERKNRRMDAVVCLLAQRMGRNGLHPVLLKGQGVAAFYEHPLTRECGDIDLCFLSEEEEREAAELMRRVGCRTEKQPDGSNCYSWQGVEVEHHTRLFDLHNPLLKVYLSALVREHGFTEFRPGGRDGLPEGNQSGEFPATISVPSPLPNLLLLNAHLLKHLLGHGVGLRQFCDMARAYHTLCGSYSPEGLEAVYRRTGLLRWSAQLHTFLTEYLGLHRAELPYADTDACSSPELLRIVLEGGNFGQYGGTKGKASQARWERKLRTFLSFWKHRGFSSAYARKEAFWISVRLIIGNLR,not soluble
4,MRQSGSWMTIWDDRILEIIHEEGNGSPKELEDRDEIRISKSSVSRRLKKLADHDLLQPLANGVYVITEEGEAYLNGEYDAGKERYINRGNSTDEENGADAPDGPGINS,soluble
5,MLPLNATITQIIEESPLIRTFFFDHKFEDMEPGQFVMVWVRGVDEVPMGLSRNNSITVQKVGEATSKLFELKEGDSFGLRGPFGKGFTLPAKGEKVLIIAGGVGAAPLSPYAEAAFAAGAEVNTVLGARSEEHLLFEGRFEALGTVYVSTDDGSKGFKGFVTDVLKNLDVTSYDRIAVCGPEIMMASVFRFLEEREVLEKSEFSLHRYFKCGIGVCGACCIDRSGLRVCKDGPVFSGTQLIGSELGKYSRDASGRRVKI,not soluble
6,MEFGVPRERSGGEIPERRVPLTPQGVRELVASGHRVYVERGAGEGAGFPDEAYEEAGARLVGREEAFGRPQVVLKVARPTLEEVGLMRKNAVLMAFLHLAVAESPLVEAMAQKGLTAIGYELVGEEGRRPVLKAMSEIAGRMAPQLAGRLLEAPQGPGILLSGLVGIPPADVVVLGAGVLGRAAARAFLGAGASVHLLDRALPPLEEAAREAPGAITALVTQDRLERYVAFADVLVGAVAVPGERTPLLLTRGLLARMRPGSVLLDFSIDQGGVSETSRPGVYQEMGVTHFCLPNVPALVPRTASHALTLTLLPYLLRIQEDPLALPGLRQGAYLLFGEKGGHLE,soluble
7,MSCCFSKKLFGRRSKREDRYKVSEDAVPKPEEGGEPPKYSWDRREKVNAEDFTIANIHNTTLKKESKDGGPLQMENCTDSTILYLYQTSQVIIDDCRHCTIVLGPAAGSVFVRDCANCTIFTSCQQLRTRDCTSIRISILCPTEPIVENSSDIHFFHLAMRYPELKDQMHAVGLRPFTNRIASVHDFTPAGVNGKGNFRVTPEVVQISDGQEEILRAKGVILKPSPADFIPRFTDTTDPDPTFLYVLGKSEPVDELGDRAIELLHAIYKSGMQVMGTCDLETSTVDSKLVPFAGQAERMILFQLKGNLANLECDVEFDVMSENDLVPLRNLLIHLEGKKNG,not soluble
8,STFQFNFTIEDHLENELTPIRDGALTLDSSKELSVSESQKGEERDRKCSAEQFDLPQDHLWEHKSMENAAPSQDTDSPLSAASSSRNLEPHGKQPSLRAAKEHAMPKDLKKMLENKVIETLPGFQHVKLSVVKTILLKENFPGENIVSKSFSSHSDLITGVYEGGLKIWECTFDLLAYFTKAKVKFAGKKVLDLGCGSGLLGITAFKGGSKEIHFQDYNSMVIDEVTLPNVVANSTLEDEENDVNEPDVKRCRKPKVTQLYKCRFFSGEWSEFCKLVLSSEKLFVKYDLILTSETIYNPDYYSNLHQTFLRLLSKNGRVLLASKAHYFGVGGGVHLFQKFVEERDVFKTRILKIIDEGLKRFIIEITFKFPG,not soluble
9,MGSDKIHHHHHHMETIETVQRFLEHMAWYATPVPASAISFLAAGEYNENWRIRHEGRDEVLRVNHGSQLRFADQIGYEYAVLRAVHPSGVTPRALRVKSRPRHLSGGALLMEYLPGRPLDYRTDLEAAAHTFAAVHSVVVPRGCPLLRQPDPVADIAADGLRLIHRFPDHPRTDVRDALLRYHERVVRLGEDTRALFEGERQVIANTEVNSGNFLVHDGVARLVDWEKAVVTPRYQDLGHFLAPTTTLWKTDTVLDEADRRRFLAAYRDALTRLAGRETVADCHFDTTDTAEGVTHEAAFHTTAPDAPGGQPHGDMAPDVPDLDALAVRTDVLVRAVLLRGLAWCYMAWQEYATDRRPLAHPDTLRTIERYLAEVSWFLR,not soluble
10,VQLQQSGPVLVKPGGSVKMSCKASEYTLTSYLFQWVKQKSGQGLEWIGYIYPYNGGTRYNEKFRGKATLTSDKSSNTAYLELSSLTSEDSAVYYCARSSMSDPGANWGPGTLVTVSSASTKGPSVFPLAPSSKSTSGGTAALGCLVKDYFPEPVTVSWNSGALTSGVHTFPAVLQSSGLYSLSSVVTVPSSSLGTQTYICNVNHKPSNTKVDKKVEP,soluble
11,MIRMAQNNKELEKLAYEYQVLQAQAQILAQNLELLNLAKAEVQTVRETLENLKKIEEEKPEILVPIGAGSFLKGVIVDKNNAIVSVGSGYAVERSIDEAISFLEKRLKEYDEAIKKTQGALAELEKRIGEVARKAQEVQQKQSMTSFKVKK,soluble
12,MGSDKIHHHHHHMSWSSAIFTGAVVHQRHRPKKHSLRYQVFCLLVDLDELPAIDKSLWLLGYNRRAILRIDDRDHGLGIPGGLKAWVANHVERAGLNTEGMKVSMLCYPRMFGYVFNPLTLYYCYGPSGTLLALLYEVENTFHERHTYVIPASVEEDGAIRHACAKQMYVSPFMPMECLYRFKIVPPGETVTVAINEADEQGPLLYASFCGKRRTLDDRALAKVLVRYPLMTLKVMGAIHWEALKLWVKGVPLHRHRKAQNPIASSIIPPEAANARSPS,not soluble
13,MKQRPKEYYEQLEELQAVDFTLVELTLYLDTHPTDYQAIQQFNQLAQKRKQLKKQFEAAYGPLEQFGHSYSNYPWNWDDTPWPWQV,not soluble
14,MKNLVGRFMRYVTFDTQSKPKNHHCPSSTGQKVFAQALYEELLELGLSDVSLDDHGYVMAKLPSNVNYPVPAIGFIAHMDTSPDACGKHVKPQIVEDYQGGDIALGKGDEVLSPIQYPDLHLLHGYNLITTDGTTLLGADNKAGIAEIITAMEILLADPSIPHGDISIAFTPDEEIGRGANHFDVAKFAAQWAYTIDGGPIGELEYENFNAATATVVCHGVNVHPGTAKDKMVNAMHIAAQFILMMPENETPQHTEGYQGFYHLSGATMSVAKSELKYILRDFEAIGLQARQALMQAKVAELNQQLKKGRVEVSFEQSYSNMKEKVEPHPHIIELAKQAMVACDVEPKIKPIRGGTDGARLSFMGLPCPNIFTGGYNFHGIHEFITIEGMEAAVQVIVKLAEKTALHYRQ,not soluble
15,MGSDKIHHHHHHMKNFIRKLIRALTAIRLETDRYKHSTLRIIINWLTAFLKDLFSAQEIRLYGLADPEDGANRIRQYVSKEMADRFYRKYNPGAAVPNIEDKFIFTTLCLQHHLPIPATYGIFKQGIVKTFDERIFQESSRFRDFIRELEPGEYLLKPNNGMLGLGLSILEIDDQGSLKFQGKSITADDLYRELCSIEVTLPASSKGDSVDMDFEGLLFQQRIANHPEITKLTGFKMLQTIRICTHVTDNNQVEILFAFMKLAGQEGLADAFNLGKTGNMLAKIDPATGKFCNVYAMDQQQGYLVETTHHAVTQANLLNFTVPHWQACLTLAMKLSTTFLPLRAVGWDIAITDNRPVVLEGNDNWVPVVPFDINIDKLKQYKLKS,not soluble
16,MGSDKIHHHHHHMLRIFQGRPAVTIAAVLVAASVAGCAGKAKKPTLVYEERPVELLYSTGADRLDRGNWNEAVDYFREVERQHPYSEWSRRSILMTGYAHYMGNQYAEAIGDADRFISLYPGNPSAQYAFYLKAICYFEQIVDVNRDQAATEQALAALRDVVQRYPNTEYATDARLKIDMVNDQLAGKEMAIGRWYLKNGQTLAAIGRFKAVIERHQTTSHTPEALFRLVEAYLTIGLNEEAKRNGAVLGYNFPGDRWYVDAYRLLNDNGLRPAVEPLKAGAKRNALERILSKDKEATLAPPGERKAKKGLLGPLGM,not soluble
17,MGSSHHHHHHGGTGENLYFQGGSGRDREVVECLLGMEQWLRELNRPLASAGVGGSVDVGASSSLLSGFPPCMEGDALRSAYRSALSELRLLVLGVLNTMPWWRVVETVAGNPPAAQTGGARTASAGGGDNSSSEAGAARVAARHAGGWDRSAAALHVITRWHARLQIAFERVCLVLIDQSQQTVRGVLEVLLKPCQLRPPVRDGARRSIPSDSFIRVLNAVATKYSPVYVVELLEGCIADFMPRRRWAERRHHVACTAVLLYLALEGHTPAYHPQLGNSYSLQRAVRLLTSLRSRRADGRCALSGSPWLLPHATGSYSLTLP,not soluble
18,MGSDKIHHHHHHMRVAPAYGKIALLISVSFSHGRHSVQDKNFDALAGKFAKNIYGTPKGEVRAAVLWRDISQAMTQLPEGPLRILDAGGGFGFFSQKLAKLGHSVTLCDISSEMLALGQAQITEYENNSGEKLDITLLHAPIQSLTREELGQFDLILCHAVAEWLSDAKQTLAGLTQLLKPQGLFSLMFYNKEAMRFHSLISGNFDYVAADFKVKKKVGLTPSYPLYIDDVRGWVSDWQMELVTASGVRVIHDYLKTHQPPNSDFSQLLEMELQYSTHPAYIGLGRYVHFITRWQR,not soluble
19,IIGQVDEISTTDLIEEEENAVLITAEGYAKRMSLEEFRVQSRGGVGVIGASVSPGDEIAVFRICNSTDRLLIFTNTGRAFWINAYEIPKMDRTARGTTLKRLIRLENGEKVVSALGVKDF,soluble
20,MAHHHHHHMLRIGICHFSRQEPQVIGTSVPSFRHFPYRAQDVLHLYRDFLRLIHQHPPQERADLLFRLHNEFYRRRHLTSPKMITGAIKRGEGILNVQRSMLESKTLRARGVSSREQGAQNVDGLWDQLQMLSGHVLPGLRNFRPSRNVLKGSYTQQATTQAVYSRRRL,not soluble
21,MDIGDNSKFDSATDLPVEQEQEQETEQEGEPEESSEQDLVEEVDWKDIPVPADAGPNMKWEFQEISDNFEYEAPADNKGSEFLEKWDDFYHNAWAGPGLTEWKRDRSYVADGELKMWATRKPGSDKINMGCITSKTRVVYPVYIEARAKVMNSTLASDVWLLSADDTQEIDILEAYGADYSESAGKDHSYFSKKVHISHHVFIRDPFQDYQPKDAGSWFEDGTVWNKEFHRFGVYWRDPWHLEYYIDGVLVRTVSGKDIIDPKHFTNTTDPGNTEIDTRTGLNKEMDIIINTEDQTWRSSPASGLQSNTYTPTDNELSNIENNTFGVDWIRIYKPVEKLEHHHHHH,soluble
